Measurements: doi:10.1101/2021.04.23.441069

How the values were obtained:
[1] = target: NyxA (purified, not held on the resin) (Brucella abortus 2308) (UniProt Q2YPD9); assay: […]
[2] = target: NyxB (untagged, His tag cleaved with TEV) (Brucella abortus 2308) (UniProt Q2YPZ9); assay: […]

NyxA (purified, not held on the resin) (from UniProt Q2YPD9 1-129) (natural protein)
stoichiometry N [1]: 2

NyxB (untagged, His tag cleaved with TEV) (from UniProt Q2YPZ9 1-134) (natural protein)
stoichiometry N [2]: 2
